The values that follow come from patent publication US10702610B2, “Method of making sulfur-containing polymers from hexahydrotriazine and dithiol precursors” (International Business Machines Corporation, priority 2015, dated 2020).

No end group written: not given here.

Data set [1] concerns human embryonic kidney cells from cell line HEK293. Briefly: incubation with HEK293 cells, cell viability. Format: cell-based. Here is the method:
(§1) To investigate toxicity of the polymer-peptide product, the polymer-peptide product was dissolved in a simulated physiological environment comprising 10% prenatal bovine serum in a phosphate-buffered saline solution. […] The polymer-peptide products was also incubated with human embryonic kidney cells from cell line HEK293 for 24 hours, after which more than 90% cell viability was observed.

Data set [2] can be described thus: dissolution in simulated physiological environment (10% prenatal bovine serum in phosphate-buffered saline), precipitation/aggregation. Format: physicochemical. The note with it: over 24 hours. The protocol:
as §1

The nature of a further data set: hemolysis. Format: cell-based. The note with it: doses up to 1000 mg/L. The protocol: as §1

“peptide: thiol-containing amphiphilic alpha-helical peptide SEQ. ID: NO: 1-NH2 (CLLKKLLKKC-NH2; cysteine pairing not given here) [reference compound]”: the cell viability entry in data set [1] (HEK293, dose of 50 mg/L) is recorded as “below 70%”.
Consider “polymer-peptide product: peptide SEQ. ID: NO: 1-NH2 attached to water-soluble polythioaminal polymer 4a (CLLKKLLKKC-NH2; cysteine pairing not given here; also: attached to polythioaminal polymer 4a)”, for which, in data set [2], the “precipitation or aggregation in solution” value was “No precipitation or aggregation was observed”. Besides, the cell viability entry in data set [1] (HEK293, 200 mg/L, similar incubation period) is on record as “more than 80%”; in data set [1] (HEK293, incubated 24 hours, dose not stated), “more than 90%”. In addition, the hemolysis entry in the data set “hemolysis” was “No hemolysis was observed”.
